Target: the molecule itself
Test: SDS-PAGE (SDS-resistant oligomers); purified His-tagged proteins resolved on SDS-PAGE without urea; Coomassie staining and immunoblotting

B1: His-tagged AKAP12 (1-840) (domain or fragment, human, UniProt Q02952 1-840, looked up)
chain: MGAGSSTEQRSPEQPPEGSSTPAEPEPSGGGPSAEAAPDTTADPAIAASDPATKLLQKNGQLSTINGVAEQDELSLQEGDLNGQKGALNGQGALNSQEEEEVIVTEVGQRDSEDVSKRDSDKEMATKSAVVHDITDDGQEETPEIIEQIPSSESNLEELTQPTESQANDIGFKKVFKFVGFKFTVKKDKTEKPDTVQLLTVKKDEGEGAAGAGDHKDPSLGAGEAASKESEPKQSTEKPEETLKREQSHAEISPPAESGQAVEECKEEGEEKQEKEPSKSAESPTSPVTSETGSTFKKFFTQGWAGWRKKTSFRKPKEDEVEASEKKKEQEPEKVDTEEDGKAEVASEKLTASEQAHPQEPAESAHEPRLSAEYEKVELPSEEQVSGSQGPSEEKPAPLATEVFDEKIEVHQEEVVAEVHVSTVEERTEEQKTEVEETAGSVPAEELVEMDAEPQEAEPAKELVKLKETCVSGEDPTQGADLSPDEKVLSKPPEGVVSEVEMLSSQERMKVQGSPLKKLFTSTGLKKLSGKKQKGKRGGGDEESGEHTQVPADSPDSQEEQKGESSASSPEEPEEITCLEKGLAEVQQDGEAEEGATSDGEKKREGVTPWASFKKMVTPKKRVRRPSESDKEDELDKVKSATLSSTESTASEMQEEMKGSVEEPKPEEPKRKVDTSVSWEALICVGSSKKRARRGSSSDEEGGPKAMGGDHQKADEAGKDKETGTDGILAGSQEHDPGQGSSSPEQAGSPTEGEGVSTWESFKRLVTPRKKSKSKLEEKSEDSIAGSGVEHSTPDTEPGKEESWVSIKKFIPGRRKKRPDGKQEQAPVEDAGPTGANEDD
notes: AKAP12, human, N-terminal fragment, residues 1-840, in pET28b(+); also called N-terminal (1-840) fragment of AKAP12; source: E. coli, purified (Ni-NTA)
- stoichiometry N: 2

B2: His-tagged human AKAP12 (natural protein, UniProt Q02952 1-1782, looked up)
chain: MGAGSSTEQRSPEQPPEGSSTPAEPEPSGGGPSAEAAPDTTADPAIAASDPATKLLQKNGQLSTINGVAEQDELSLQEGDLNGQKGALNGQGALNSQEEEEVIVTEVGQRDSEDVSKRDSDKEMATKSAVVHDITDDGQEETPEIIEQIPSSESNLEELTQPTESQANDIGFKKVFKFVGFKFTVKKDKTEKPDTVQLLTVKKDEGEGAAGAGDHKDPSLGAGEAASKESEPKQSTEKPEETLKREQSHAEISPPAESGQAVEECKEEGEEKQEKEPSKSAESPTSPVTSETGSTFKKFFTQGWAGWRKKTSFRKPKEDEVEASEKKKEQEPEKVDTEEDGKAEVASEKLTASEQAHPQEPAESAHEPRLSAEYEKVELPSEEQVSGSQGPSEEKPAPLATEVFDEKIEVHQEEVVAEVHVSTVEERTEEQKTEVEETAGSVPAEELVEMDAEPQEAEPAKELVKLKETCVSGEDPTQGADLSPDEKVLSKPPEGVVSEVEMLSSQERMKVQGSPLKKLFTSTGLKKLSGKKQKGKRGGGDEESGEHTQVPADSPDSQEEQKGESSASSPEEPEEITCLEKGLAEVQQDGEAEEGATSDGEKKREGVTPWASFKKMVTPKKRVRRPSESDKEDELDKVKSATLSSTESTASEMQEEMKGSVEEPKPEEPKRKVDTSVSWEALICVGSSKKRARRGSSSDEEGGPKAMGGDHQKADEAGKDKETGTDGILAGSQEHDPGQGSSSPEQAGSPTEGEGVSTWESFKRLVTPRKKSKSKLEEKSEDSIAGSGVEHSTPDTEPGKEESWVSIKKFIPGRRKKRPDGKQEQAPVEDAGPTGANEDDSDVPAVVPLSEYDAVEREKMEAQQAQKSAEQPEQKAATEVSKELSESQVHMMAAAVADGTRAATIIEERSPSWISASVTEPLEQVEAEAALLTEEVLEREVIAEEEPPTVTEPLPENREARGDTVVSEAELTPEAVTAAETAGPLGAEEGTEASAAEETTEMVSAVSQLTDSPDTTEEATPVQEVEGGVPDIEEQERRTQEVLQAVAEKVKEESQLPGTGGPEDVLQPVQRAEAERPEEQAEASGLKKETDVVLKVDAQEAKTEPFTQGKVVGQTTPESFEKAPQVTESIESSELVTTCQAETLAGVKSQEMVMEQAIPPDSVETPTDSETDGSTPVADFDAPGTTQKDEIVEIHEENEVASGTQSGGTEAEAVPAQKERPPAPSSFVFQEETKEQSKMEDTLEHTDKEVSVETVSILSKTEGTQEADQYADEKTKDVPFFEGLEGSIDTGITVSREKVTEVALKGEGTEEAECKKDDALELQSHAKSPPSPVEREMVVQVEREKTEAEPTHVNEEKLEHETAVTVSEEVSKQLLQTVNVPIIDGAKEVSSLEGSPPPCLGQEEAVCTKIQVQSSEASFTLTAAAEEEKVLGETANILETGETLEPAGAHLVLEEKSSEKNEDFAAHPGEDAVPTGPDCQAKSTPVIVSATTKKGLSSDLEGEKTTSLKWKSDEVDEQVACQEVKVSVAIEDLEPENGILELETKSSKLVQNIIQTAVDQFVRTEETATEMLTSELQTQAHVIKADSQDAGQETEKEGEEPQASAQDETPITSAKEESESTAVGQAHSDISKDMSEASEKTMTVEVEGSTVNDQQLEEVVLPSEEEGGGAGTKSVPEDDGHALLAERIEKSLVEPKEDEKGDDVDDPENQNSALADTDASGGLTKESPDTNGPKQKEKEDAQEVELQEGKVHSESDKAITPQAQEELQKQERESAKSELTES
notes: A-kinase-anchoring protein 12 (AKAP12, gravin, SSECKS), human, full length (1-1782), calculated MW 191.5 kDa; also called gravin; SSECKS; source: E. coli, purified by gel filtration chromatography (Superose 12)
- stoichiometry N: 2

B3: His-tagged AKAP12 (840-1782) (domain or fragment, human, UniProt Q02952 840-1782, looked up)
chain: DSDVPAVVPLSEYDAVEREKMEAQQAQKSAEQPEQKAATEVSKELSESQVHMMAAAVADGTRAATIIEERSPSWISASVTEPLEQVEAEAALLTEEVLEREVIAEEEPPTVTEPLPENREARGDTVVSEAELTPEAVTAAETAGPLGAEEGTEASAAEETTEMVSAVSQLTDSPDTTEEATPVQEVEGGVPDIEEQERRTQEVLQAVAEKVKEESQLPGTGGPEDVLQPVQRAEAERPEEQAEASGLKKETDVVLKVDAQEAKTEPFTQGKVVGQTTPESFEKAPQVTESIESSELVTTCQAETLAGVKSQEMVMEQAIPPDSVETPTDSETDGSTPVADFDAPGTTQKDEIVEIHEENEVASGTQSGGTEAEAVPAQKERPPAPSSFVFQEETKEQSKMEDTLEHTDKEVSVETVSILSKTEGTQEADQYADEKTKDVPFFEGLEGSIDTGITVSREKVTEVALKGEGTEEAECKKDDALELQSHAKSPPSPVEREMVVQVEREKTEAEPTHVNEEKLEHETAVTVSEEVSKQLLQTVNVPIIDGAKEVSSLEGSPPPCLGQEEAVCTKIQVQSSEASFTLTAAAEEEKVLGETANILETGETLEPAGAHLVLEEKSSEKNEDFAAHPGEDAVPTGPDCQAKSTPVIVSATTKKGLSSDLEGEKTTSLKWKSDEVDEQVACQEVKVSVAIEDLEPENGILELETKSSKLVQNIIQTAVDQFVRTEETATEMLTSELQTQAHVIKADSQDAGQETEKEGEEPQASAQDETPITSAKEESESTAVGQAHSDISKDMSEASEKTMTVEVEGSTVNDQQLEEVVLPSEEEGGGAGTKSVPEDDGHALLAERIEKSLVEPKEDEKGDDVDDPENQNSALADTDASGGLTKESPDTNGPKQKEKEDAQEVELQEGKVHSESDKAITPQAQEELQKQERESAKSELTES
notes: AKAP12, human, C-terminal fragment, residues 840-1782, in pET28b(+); also called C-terminal (840-1782) fragment of AKAP12; source: E. coli, purified (Ni-NTA)
- stoichiometry N: 2
